# Laboratory results reported in US20030158133.
# What was measured:
# [1] = system: Flag-tagged rtPDE3B-137 (full ORF) S421D
# [2] = system: Flag-tagged rtPDE3B-137 (full ORF) S421A
# [3] = system: Flag-tagged rtPDE3B containing its full ORF
substance,measurement,setting,value
PK-A (cAMP-dependent protein kinase),"stimulation of cGMP hydrolytic activity by PK-A (0.03 µM cGMP, with or without PK-A and ATP)",[1],caused a much greater stimulation of activity in S421D than in S421A or the wild-type rtPDE3B
same,"stimulation of cGMP hydrolytic activity by PK-A (0.03 µM cGMP, with or without PK-A and ATP)",[2],caused a much greater stimulation of activity in S421D than in S421A or the wild-type rtPDE3B
same,"stimulation of cGMP hydrolytic activity by PK-A (0.03 µM cGMP, with or without PK-A and ATP)",[3],caused a much greater stimulation of activity in S421D than in S421A or the wild-type rtPDE3B
